This is an account of results in US10047131B2, “Peptides and combination of peptides for use in immunotherapy against ovarian cancer and other cancers” (immatics biotechnologies GmbH, priority 2015, dated 2018).

This assay has as its target HLA-A*02:01 (Homo sapiens, UniProt P04439, D140Y/D185E/D98H/E176V/E277Q/G131W/G231S/I119V/I121R/I166T/I218V/L300P/L318F/N151K/N90K/P208A/P217A/Q86G/Q94H/R138H/R169H/T345S). Briefly: MHC binding assay (UV-ligand exchange, ELISA of exchange yield). Particulars: binding to HLA-A*02:01, UV-ligand exchange. An outline of the steps: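 Peptide–MHC complexes made by UV-ligand exchange, where a UV-cleavable peptide is replaced by the test peptide. Exchange yield measured by ELISA: complexes diluted 100-fold on streptavidin-coated plates, stabilized complexes detected with HRP anti-β2m, TMB read at 450 nm.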
Consider “177 (YLLPEEYTSTL; listed as Homo sapiens) [compound 177]”, for which the “Peptide exchange (MHC class I binding score, peptide exchange yield)” value (from here on “Peptide exchange”) was ““++++” (≥75% = ++++)”. With “178 (ALTEIAFVV; listed as Homo sapiens) [compound 178]” the entry was ““++++” (≥75% = ++++)”; with “179 (KVLNELYTV; listed as Homo sapiens) [compound 179]”, ““+++” (≥50 = +++)”. On to “180 (FQIDPHSGLVTV; listed as Homo sapiens) [compound 180]”, for which the “Peptide exchange” value is recorded as ““++” (≥20% = ++)”. “181 (LLWAGTAFQV; listed as Homo sapiens) [compound 181]”: the “Peptide exchange” value is recorded as ““+++” (≥50 = +++)”. Take “182 (MLLEAPGIFL; listed as Homo sapiens) [compound 182]”: the “Peptide exchange” value is recorded as ““+++” (≥50 = +++)”. Regarding “183 (FGLDLVTEL; listed as Homo sapiens) [compound 183]”, the “Peptide exchange” value was ““+++” (≥50 = +++)”. As for “184 (YLMDINGKMWL; listed as Homo sapiens) [compound 184]”, the “Peptide exchange” value is ““+++” (≥50 = +++)”.

Regarding “185 (FLIDDKGYTL; listed as Homo sapiens) [compound 185]”, the “Peptide exchange” value is reported as ““++” (≥20% = ++)”.

“186 (TLFFQQNAL; listed as Homo sapiens) [compound 186]”: the “Peptide exchange” value is recorded as ““++” (≥20% = ++)”. With “187 (RQISIRGIVGV; listed as Homo sapiens) [compound 187]” the entry was ““+++” (≥50 = +++)”. With “188 (GLFPVTPEAV; listed as Homo sapiens) [compound 188]” the entry was ““+++” (≥50 = +++)”; with “189 (ALQRKLPYV; listed as Homo sapiens) [compound 189]”, ““+++” (≥50 = +++)”. To “190 (FLSSLTETI; listed as Homo sapiens) [compound 190]” belongs ““+++” (≥50 = +++)”; to “191 (LLQEGQALEYV; listed as Homo sapiens) [compound 191]”, ““++” (≥20% = ++)”. “192 (KMLDGASFTL; listed as Homo sapiens) [compound 192]”: the “Peptide exchange” value is listed as ““+++” (≥50 = +++)”. With “193 (QLLDADGFLNV; listed as Homo sapiens) [compound 193]” the entry was ““+++” (≥50 = +++)”; with “194 (ALPLFVITV; listed as Homo sapiens) [compound 194]”, ““+++” (≥50 = +++)”.

In the case of “195 (GLFADLLPRL; listed as Homo sapiens) [compound 195]”, the “Peptide exchange” value is on record as ““+++” (≥50 = +++)”. To “196 (YLYSVEIKL; listed as Homo sapiens) [compound 196]” belongs ““++++” (≥75% = ++++)”.

As to “197 (ALGPEGGRV; listed as Homo sapiens) [compound 197]”, the “Peptide exchange” value is listed as ““++” (≥20% = ++)”.

As for “198 (KTINKVPTV; listed as Homo sapiens) [compound 198]”, the “Peptide exchange” value is listed as ““+++” (≥50 = +++)”. With “199 (ALQDVPLSSV; listed as Homo sapiens) [compound 199]” the entry was ““+++” (≥50 = +++)”; with “200 (LLFGSVQEV; listed as Homo sapiens) [compound 200]”, ““+++” (≥50 = +++)”; with “201 (RLVDYLEGI; listed as Homo sapiens) [compound 201]”, ““+++” (≥50 = +++)”. “202 (ALLDQQGSRWTL; listed as Homo sapiens) [compound 202]”: the “Peptide exchange” value is ““+++” (≥50 = +++)”.

As to “204 (KIAENVEEV; listed as Homo sapiens) [compound 204]”, the “Peptide exchange” value is ““++” (≥20% = ++)”. To “205 (SLYPGTETMGL; listed as Homo sapiens) [compound 205]” belongs ““+++” (≥50 = +++)”; to “206 (VLQEGKLQKLAQL; listed as Homo sapiens) [compound 206]”, ““+++” (≥50 = +++)”; to “207 (GLTSTNAEV; listed as Homo sapiens) [compound 207]”, ““++” (≥20% = ++)”. To “208 (KISPVTFSV; listed as Homo sapiens) [compound 208]” belongs ““+++” (≥50 = +++)”. To “209 (KLIESKHEV; listed as Homo sapiens) [compound 209]” belongs ““++” (≥20% = ++)”.

For “210 (LLLNAVLTV; listed as Homo sapiens) [compound 210]”, the “Peptide exchange” value was ““++” (≥20% = ++)”. With “211 (LLWPGAALL; listed as Homo sapiens) [compound 211]” the entry was ““++” (≥20% = ++)”; with “212 (ALWDQDNLSV; listed as Homo sapiens) [compound 212]”, ““++” (≥20% = ++)”; with “214 (FLLDLDPLLL; listed as Homo sapiens) [compound 214]”, ““+++” (≥50 = +++)”.

“215 (QLINHLHAV; listed as Homo sapiens) [compound 215]”: the “Peptide exchange” value is reported as ““+++” (≥50 = +++)”. In the case of “216 (NLWEDPYYL; listed as Homo sapiens) [compound 216]”, the “Peptide exchange” value was ““+++” (≥50 = +++)”. With “217 (ALIHPVSTV; listed as Homo sapiens) [compound 217]” the entry was ““++” (≥20% = ++)”; with “218 (SALEELVNV; listed as Homo sapiens) [compound 218]”, ““++” (≥20% = ++)”; with “219 (KLSDIGITV; listed as Homo sapiens) [compound 219]”, ““+++” (≥50 = +++)”. Take “220 (LLQKFVPEI; listed as Homo sapiens) [compound 220]”: the “Peptide exchange” value is reported as ““++” (≥20% = ++)”. In the case of “221 (ALYEEGLLL; listed as Homo sapiens) [compound 221]”, the “Peptide exchange” value was ““++” (≥20% = ++)”. To “222 (NLIENVQRL; listed as Homo sapiens) [compound 222]” belongs ““++” (≥20% = ++)”; to “223 (ALLENIALYL; listed as Homo sapiens) [compound 223]”, ““+++” (≥50 = +++)”.

For the substance “224 (TLIDAQWVL; listed as Homo sapiens) [compound 224]”, the “Peptide exchange” value was ““+++” (≥50 = +++)”. For the substance “225 (SLLKVLPAL; listed as Homo sapiens) [compound 225]”, the “Peptide exchange” value is reported as ““+++” (≥50 = +++)”.

For “226 (MLYVVPIYL; listed as Homo sapiens) [compound 226]”, the “Peptide exchange” value is given as ““++” (≥20% = ++)”. As to “227 (ALMNTLLYL; listed as Homo sapiens) [compound 227]”, the “Peptide exchange” value is listed as ““++” (≥20% = ++)”. To “228 (AMQEYIAVV; listed as Homo sapiens) [compound 228]” belongs ““++” (≥20% = ++)”; to “229 (RLPGPLGTV; listed as Homo sapiens) [compound 229]”, ““++” (≥20% = ++)”. To “230 (ILVDWLVEV; listed as Homo sapiens) [compound 230]” belongs ““+” (≥10% = +)”. To “231 (FLSPQQPPLLL; listed as Homo sapiens) [compound 231]” belongs ““++” (≥20% = ++)”; to “232 (ALLEAQDVELYL; listed as Homo sapiens) [compound 232]”, ““++” (≥20% = ++)”; to “233 (VLSETLYEL; listed as Homo sapiens) [compound 233]”, ““++” (≥20% = ++)”. As for “234 (ALMEDTGRQML; listed as Homo sapiens) [compound 234]”, the “Peptide exchange” value is given as ““++” (≥20% = ++)”. Regarding “235 (YLNDLHEVLL; listed as Homo sapiens) [compound 235]”, the “Peptide exchange” value is on record as ““++++” (≥75% = ++++)”. To “236 (GLLEAKVSL; listed as Homo sapiens) [compound 236]” belongs ““+++” (≥50 = +++)”; to “237 (ALLEASGTLLL; listed as Homo sapiens) [compound 237]”, ““++++” (≥75% = ++++)”. Consider “238 (YLISFQTHI; listed as Homo sapiens) [compound 238]”, for which the “Peptide exchange” value is on record as ““+++” (≥50 = +++)”. Regarding “239 (AAFAGKLLSV; listed as Homo sapiens) [compound 239]”, the “Peptide exchange” value is ““+++” (≥50 = +++)”.
